Test results: publication PMC4446444, “Stable complex formation of CENP-B with the CENP-A nucleosome”

T1: CENP-B DBD (Homo sapiens, UniProt P07199 1-129)
T1 sequence: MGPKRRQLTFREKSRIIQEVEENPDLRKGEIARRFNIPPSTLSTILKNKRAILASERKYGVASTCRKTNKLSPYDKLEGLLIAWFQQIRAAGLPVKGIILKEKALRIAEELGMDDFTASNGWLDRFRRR


Assays:
[1] = biological target: His6-tagged CENP-B DBD complexed with a 21 base-pair DNA (human) (UniProt P07199); assay: pull-down; His6-tagged CENP-B DBD with 21 base-pair CENP-B box DNA (50 nM) held on Ni-NTA agarose beads; histone complex 50 nM; 20 mM Tris-HCl pH 8.0, 300 mM NaCl, 60 mM imidazole, 0.3% Tween-20, BSA, 4 °C 60 min; washes with 500 mM NaCl, 30 mM imidazole; 16% SDS-PAGE with Coomassie
CENP-B DBD = biological target: T1, CENP-B DBD; assay: competition; naked competitor; DBD-DNA complex increases with DNA amount; Buffer of the EMSA and competition assays not in material (6% native PAGE, ethidium bromide); pull-down: 20 mM Tris-HCl pH 8.0, 300 mM NaCl, 60 mM imidazole, 0.3% Tween-20, 0.01 ug/ul BSA, 4 C, 60 min; conditions: protein: recombinant; blunt

Molecule	percent of H4 in the CENP-B-bound fraction against the CENP-A-H4 complex [1]	binding result (CENP-B DBD)
H3.1^CATD-H4 complex (from UniProt P68431 1-75; P49450 75-114; P68431 114-136; P62805 1-103)	4%	–
166-bp alpha-satellite DNA, proximal CENP-B box (naked) (dsDNA) DNA 1: ATCTATTTGGACCGCATTGAGGCCTTCGTTGGAAACGGGATTTCTTCATTTCATGCTAGACAGAAGAATTCTCAGTAACTTCTTTGTGCTGTGTGTATTCAACTCACAGAGTGGAACGTCCCTTTGCACAGAGCAGATTTGAAACACTCTTTTTGTAGTCGACGAT DNA 2: ATCGTCGACTACAAAAAGAGTGTTTCAAATCTGCTCTGTGCAAAGGGACGTTCCACTCTGTGAGTTGAATACACACAGCACAAAGAAGTTACTGAGAATTCTTCTGTCTAGCATGAAATGAAGAAATCCCGTTTCCAACGAAGGCCTCAATGCGGTCCAAATAGAT	–	binds
